29 molecules from patent publication US20060228349A1 (published 2006) can be followed below.

In experiment [1] the target is T1, Biotinylated ADDL preparations (bADDLs) (N-terminal biotin).
T1 construct: Oligomer, number of copies not fixed; also called biotinylated ADDL antigen; high molecular weight 10% bADDL
Description: BIACORE, bADDL as antigen; column IgG1#1. (In SPR one partner is held on a chip, and binding of the other changes the refractive index at the surface.)

The target of experiment [2] is T2, biotin-Aβ1-20 (biotin (position not given)).
T2 peptide: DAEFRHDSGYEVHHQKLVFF
The experiment in a line: BIACORE, biotin-Aβ1-20 as antigen; column IgG1#1.

Experiment [3] addresses T1, Biotinylated ADDL preparations (bADDLs). The experiment in a line: BIACORE, bADDL as antigen; column Fab.
For experiment [4], the target named is T2, biotin-Aβ1-20. Description: BIACORE, biotin-Aβ1-20 as antigen; column Fab.
In experiment [5] the target is T1, Biotinylated ADDL preparations (bADDLs). The experiment in a line: BIACORE, bADDL as antigen; column IgG1#2.
The target of experiment [6] is T2, biotin-Aβ1-20. The experiment in a line: BIACORE, biotin-Aβ1-20 as antigen; column IgG1#2.
Experiment [7] addresses T3, Aβ-derived diffusible ligands (synthetic ADDLs), soluble oligomers of amyloid β1-42.
T3 construct: Oligomeric preparation of synthetic Aβ1-42 in DMSO/F12 (monomer, trimer, tetramer, 12-24mer on SDS-PAGE); number of copies not fixed; also called soluble Aβ oligomers
Description: immunofluorescence of ADDLs bound to primary hippocampal neurons.

Experiment [8] has as its target T1, Biotinylated ADDL preparations (bADDLs). Description: BIACORE, bADDL as antigen; column Fab (row shifted one column to the left).
In another experiment the target is T4, Aβ1-20 peptide.
T4 peptide: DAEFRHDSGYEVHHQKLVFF
Description: peptide ELISA. (In an ELISA, binding on a coated surface is turned into a signal by an enzyme label.)

Positions count from the first letter of the chain named.

B1: 20C2-1A, affinity matured humanized 20C2, IgG1 humanized A version (antibody, V domains shown)
VH: QVTLKESGPALVKPTQTLTLTCTFSGFSLSTSGMGVGWIRQPPGKALEWLAHIWWDDDKSYNPSLKSRLTISKDTSKNQVVLTMTNMDPVDTATYYCARRQLGLRSIDAMDYWGQGTTVTVSS
VL: DVVMTQSPLSLPVTPGEPASISCRSSQSILHSNGNTYLEWYLQKPGQSPQLLIYKVSNRFSGVPDRFSGSGSGTDFTLKISRVEAEDVGVYYCFQASRVPLTFGQGTKLEIKR
notes: also called SJ-p2-60
For orientation: Kd means the constant that tells how readily two partners part at equilibrium. B1: the Kd in experiment [1] worked out at 0.075 nM; with biotin-Aβ1-20 [2], 1.2 nM.

B2: 20C2-6A Fab fragment (clone 4P1-22) (Fab, V domains shown)
VH: B1 VH
VL: B1 VL with A96S
As to B2, the Kd in experiment [3] is 42 nM; in the experiment with biotin-Aβ1-20 [4], 18 nM.

B3: 20C2-12A, affinity matured humanized 20C2, IgG1 humanized A version (antibody, V domains shown)
VH: B1 VH
VL: B1 VL with F94L, A96S, R98L
notes: also called 4P1-32
Consider B3, for which the Kd in [1] is 0.015 nM; in the experiment with biotin-Aβ1-20 [2], 1.5 nM.

B4: 20C2-9A Fab fragment (clone SJ-p2-51) (Fab, V domains shown)
VH: B1 VH
VL: B1 VL with F94V, A96T, R98L
With B4, the Kd is 40 nM in experiment [3] and 36 nM with biotin-Aβ1-20 [4].

B5: 20C2-7A Fab fragment (clone SJ-p2-27) (Fab, V domains shown)
VH: B1 VH
VL: B1 VL with F94L, Q95N, A96S, S97T, R98T
For the molecule B5, the Kd worked out at 435 nM in [3] and 128 nM with biotin-Aβ1-20 [4].

B6: 20C2-18A Fab fragment (clone SJ-p1-9M) (Fab, V domains shown)
VH: B1 VH
VL: B1 VL with F94M, A96S, R98F
As to B6, the Kd in experiment [3] turned out to be 85 nM; in the experiment with biotin-Aβ1-20 [4], 126 nM.

B7: 20C2-13A, affinity matured humanized 20C2, IgG1 humanized A version (antibody, V domains shown)
VH: B1 VH
VL: B1 VL with F94L, A96T, R98N
notes: also called 4p1-20; 4P1-20
As to B7, the Kd is 0.764 nM in experiment [1] and 3 nM in the experiment with biotin-Aβ1-20 [2].

B8: 20C2-12A Fab fragment (clone 4P1-32) (Fab, V domains shown)
VH: B1 VH
VL: B1 VL with F94L, A96S, R98L
As for B8, the Kd in experiment [3] is 238 nM; in the experiment with biotin-Aβ1-20 [4], 617 nM.

B9: 20C2-8A Fab fragment (clone SJ-p2-39) (Fab, V domains shown)
VH: B1 VH
VL: B1 VL with F94L, A96T, S97T
Regarding B9, the Kd in experiment [3] was determined as 13 nM; with biotin-Aβ1-20 [4], 14 nM.

B10: 20C2-8B, affinity matured humanized 20C2, IgG1 humanized B version (antibody, V domains shown)
VH: B1 VH with F24L
VL: B1 VL with F94L, A96T, S97T
notes: also called SJ-p2-39
Turning to B10, the Kd in experiment [1] worked out at 0.013 nM; in the experiment with biotin-Aβ1-20 [2], 0.046 nM; in experiment [5] it was 0.0008 nM; in the experiment with biotin-Aβ1-20 [6], 0.064 nM.

B11: 20C2-9A, affinity matured humanized 20C2, IgG1 humanized A version (antibody, V domains shown)
VH: B1 VH
VL: B1 VL with F94V, A96T, R98L
notes: also called SJ-p2-51
In the case of B11, the Kd in the experiment with biotin-Aβ1-20 [2] amounted to 0.241 nM; in [5], 0.002 nM; in the experiment with biotin-Aβ1-20 [6], 0.42 nM.

B12: 20C2-1A Fab fragment (clone SJ-p2-60) (Fab, V domains shown)
VH: B1 VH
VL: B1 VL
As for B12, the results for the Kd (in experiment [3]; in the experiment with biotin-Aβ1-20 [4]) were 85 nM and 91 nM, respectively.

B13: 20C2-24A, affinity matured humanized 20C2, IgG1 humanized A version (antibody, V domains shown)
VH: B1 VH
VL: B1 VL with F94G, A96T, S97T, R98L
notes: also called SJ-p2-44
For B13, the figures for the Kd (in experiment [1]; in the experiment with biotin-Aβ1-20 [2]) were 0.114 nM and 1.9 nM, respectively.

B14: 20C2-5A, affinity matured humanized 20C2, IgG1 humanized A version (antibody, V domains shown)
VH: B1 VH
VL: B1 VL with A96S, R98F
notes: also called SJ-p2-1F
Regarding B14, the Kd was 0.317 nM in experiment [1], 0.912 nM in the experiment with biotin-Aβ1-20 [2], 0.068 nM in experiment [5] and 1.5 nM with biotin-Aβ1-20 [6].

B15: 20C2-6B, affinity matured humanized 20C2, IgG1 humanized B version (antibody, V domains shown)
VH: B1 VH with F24L
VL: B1 VL with A96S
notes: also called 4P1-22
Regarding B15, the Kd (in experiment [1]; with biotin-Aβ1-20 [2]) was 0.053 nM each time.

B16: 20C2-5A Fab fragment (clone SJ-p2-1F) (Fab, V domains shown)
VH: B1 VH
VL: B1 VL with A96S, R98F
With B16, the Kd (in [3]; with biotin-Aβ1-20 [4]) was 41 nM in each case.

B17: 20C2-2A, affinity matured humanized 20C2, IgG1 humanized A version (antibody, V domains shown)
VH: B1 VH
VL: B1 VL with S97T
notes: also called SJ-p1-18
Take B17: the Kd amounted to 0.015 nM in experiment [1], 0.686 nM with biotin-Aβ1-20 [2], 0.0003 nM in experiment [5] and 2 nM with biotin-Aβ1-20 [6].

B18: 20C2-6A, affinity matured humanized 20C2, IgG1 humanized A version (antibody, V domains shown)
VH: B1 VH
VL: B1 VL with A96S
notes: also called 4P1-22
For the molecule B18, the Kd was found to be 0.0043 nM in [1], 0.544 nM with biotin-Aβ1-20 [2], 0.024 nM in experiment [5] and 0.714 nM with biotin-Aβ1-20 [6].

B19: 20C2-8A, affinity matured humanized 20C2, IgG1 humanized A version (antibody, V domains shown)
VH: B1 VH
VL: B1 VL with F94L, A96T, S97T
notes: also called SJ-p2-39
Consider B19, for which the Kd in [1] turned out to be 0.003 nM; in the experiment with biotin-Aβ1-20 [2] it was 0.14 nM; in experiment [5] it was 0.0007 nM; in the experiment with biotin-Aβ1-20 [6], 0.376 nM.

B20: 20C2-2A Fab fragment (clone SJ-p1-18) (Fab, V domains shown)
VH: B1 VH
VL: B1 VL with S97T
Take B20: the Kd (in experiment [3]; with biotin-Aβ1-20 [4]) was 28 nM in each case.

B21: 20C2-18A, affinity matured humanized 20C2, IgG1 humanized A version (antibody, V domains shown)
VH: B1 VH
VL: B1 VL with F94M, A96S, R98F
notes: also called SJ-p1-9M
For B21, the Kd was 0.149 nM in experiment [1] and 1.8 nM with biotin-Aβ1-20 [2].

B22: 20C2-10A, affinity matured humanized 20C2, IgG1 humanized A version (antibody, V domains shown)
VH: B1 VH
VL: B1 VL with A96G, V99L, L101V, T102S
notes: also called 20C2-1GA; SJ-p3-33
Consider B22, for which the Kd in experiment [1] worked out at 7.7 nM; with biotin-Aβ1-20 [2], 84 nM.

B23: 20C2-13A Fab fragment (clone 4p1-20) (Fab, V domains shown)
VH: B1 VH
VL: B1 VL with F94L, A96T, R98N
As for B23, the Kd in [3] is 567 nM; with biotin-Aβ1-20 [4], 94 nM.

B24: 20C2-20A, affinity matured humanized 20C2, IgG1 humanized A version (antibody, V domains shown)
VH: B1 VH
VL: B1 VL with A96G, R98L, V99F, L101P, T102V
notes: also called SJ-p3-15
Take B24: the results for the Kd (in experiment [1]; with biotin-Aβ1-20 [2]) were 6.9 nM and 21 nM, respectively.

B25: 20C2-3A, affinity matured humanized 20C2, IgG1 humanized A version (antibody, V domains shown)
VH: B1 VH
VL: B1 VL with A96G, R98F, V99I, L101G
notes: also called SJ-p3-16
As for B25, the Kd was 3.7 nM in experiment [1] and 1.7 nM with biotin-Aβ1-20 [2].

B26: 20C2-23A, affinity matured humanized 20C2, IgG1 humanized A version (antibody, V domains shown)
VH: B1 VH
VL: B1 VL with F94H, A96S, R98K
notes: also called 4P1-40
With B26, the Kd in [1] is 0.085 nM; in the experiment with biotin-Aβ1-20 [2], 0.649 nM; in experiment [5], 0.066 nM; with biotin-Aβ1-20 [6], 1.5 nM.

B27: murine anti-ADDL monoclonal antibody 2H4 (antibody, mouse IgG2a, V domains shown)
VH: DVQLVESGGGLVQPGGSRKLSCAASGFTFSSFGMHWVRQAPEKGLEWVAYIRSGSSTIYYADTVKGRFTISRDNPKNTLFLQMTSLRSEDTAMYYCTRGGNYYGSSRFAYWGQGTLVTVSA
VL: DIKMTQSPSSMYASLGERVTITCKASQDINSYLSWFQQKPGKSPKTLIYRANRFVDGVPSRFSGSGSGQDYSLTISSLEYEDMGIYFCLQYDEFPLTFGAGTKLVLK
B27: in [7], the binding result is on record as “binds”.

B28: Fab of mouse 20C2 (Fab, V domains shown)
VH: QVTLKESGPGILKPSQTLSLTCSLSGFSLSTSGMGVGWFRQPSGKGLEWLAHIWWDDDKSYNPSLKSRLTISKYTSRNQVFLTITSVDTADTATYYCARRQLGLRSIDAMDYWGQGTSVTVSS
VL: DVLMTQTPLSLPVSLGDQASISCRSSQSILHSNGNTYLEWYLQKPGQSPKLLIYKVSNRFSGVPDRFSGSGSGTDFTLKISRVEAEDLGVYYCFQGSLVPLTFGAGTKLELK
notes: also called Mouse-20C2 (Fab column)
Take B28: the Kd in experiment [8] turned out to be 62 nM; with biotin-Aβ1-20 [4], 83 nM.

B29: murine anti-ADDL monoclonal antibody 1F6 (antibody, mouse IgG1, V domains shown)
VH: DVQLVESGGGLVQPGGSRKLSCAASGFTFSSFGMHWVRQAPEKGLEWVAYISSVSSTIYYADTVKGRFTISRDNPKNTLFLQMTSLRSEDTAMYYCARSGYGSSYGYGMDYWGQGTLVTVSS
VL: B28 VL with L30V, L98H
B29: the binding result with Aβ1-20 peptide is given as “binds”.
